Measurements taken from FireProtDB (doi:10.1007/s10930-006-9055-y).

Details: Weissella confusa, Thermal, reversible: No, whole UniProt chain shown
[1] = pH 6, DSC, Natrium phosphate Imidazol 50 mM 250 mM, NaCl 300 mM
[2] = pH 7, DSC, Natrium phosphate Imidazol 50 mM 250 mM, NaCl 300 mM
[3] = pH 8, DSC, Natrium phosphate Imidazol 50 mM 250 mM, NaCl 300 mM

B1: L-2-hydroxyisocaproate dehydrogenase wild type, P14295 (protein)
chain: MARKIGIIGLGNVGAAVAHGLIAQGVADDYVFIDANEAKVKADQIDFQDAMANLEAHGNIVINDWAALADADVVISTLGNIKLQQDNPTGDRFAELKFTSSMVQSVGTNLKESGFHGVLVVISNPVDVITALFQHVTGFPAHKVIGTGTLLDTARMQRAVGEAFDLDPRSVSGYNLGEHGNSQFVAWSTVRVMGQPIVTLADAGDIDLAAIEEEARKGGFTVLNGKGYTSYGVATSAIRIAKAVMADAHAELVVSNRRDDMGMYLSYPAIIGRDGVLAETTLDLTTDEQEKLLQSRDYIQQRFDEIVDTL
Q: For B1, which Tm (pH 6, CD, Potassium phosphate 5 mM) is on record?
A: 56.8 °C

Q: And the Tm [1]?
A: 62.5 °C

Q: What about the “unfolding enthalpy (calorimetric)” value [1] of the same protein?
A: 222 kcal/mol

Q: What about the “unfolding enthalpy (van 't Hoff)” value [1] of the same protein?
A: 227 kcal/mol

Q: And the Tm (pH 6, DSC, Potassium phosphate 5 mM)?
A: 57.2 °C

Q: What about the Tm (pH 7, CD, Potassium phosphate 5 mM) of the same protein?
A: 60.2 °C

Q: And the Tm [2]?
A: 55.1 °C

Q: And the “unfolding enthalpy (calorimetric)” value [2]?
A: 203 kcal/mol

Q: What about the “unfolding enthalpy (van 't Hoff)” value [2] of the same protein?
A: 202 kcal/mol

Q: And the Tm (pH 7, DSC, Potassium phosphate 5 mM)?
A: 59.6 °C

Q: And the Tm (pH 8, CD, Potassium phosphate 5 mM)?
A: 56.2 °C

Q: What about the Tm [3] of the same protein?
A: 44.1 °C

Q: And the “unfolding enthalpy (calorimetric)” value [3]?
A: 221 kcal/mol

Q: What about the “unfolding enthalpy (van 't Hoff)” value [3] of the same protein?
A: 225 kcal/mol
